The source of these data is patent publication CN111956606A (JIANGSU QUANXIN BIOMEDICAL CO LTD, dated 2020).

The target of data set [1] is T1, 人白介素23(Human interleukin 23，hIL-23) (human, UniProt Q9NPF7 20-189; P29460 23-328).
T1 sequence 1: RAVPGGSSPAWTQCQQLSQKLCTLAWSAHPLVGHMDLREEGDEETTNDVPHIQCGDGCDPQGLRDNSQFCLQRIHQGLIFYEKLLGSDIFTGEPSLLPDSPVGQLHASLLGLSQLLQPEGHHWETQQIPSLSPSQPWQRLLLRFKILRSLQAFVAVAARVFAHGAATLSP
T1 sequence 2: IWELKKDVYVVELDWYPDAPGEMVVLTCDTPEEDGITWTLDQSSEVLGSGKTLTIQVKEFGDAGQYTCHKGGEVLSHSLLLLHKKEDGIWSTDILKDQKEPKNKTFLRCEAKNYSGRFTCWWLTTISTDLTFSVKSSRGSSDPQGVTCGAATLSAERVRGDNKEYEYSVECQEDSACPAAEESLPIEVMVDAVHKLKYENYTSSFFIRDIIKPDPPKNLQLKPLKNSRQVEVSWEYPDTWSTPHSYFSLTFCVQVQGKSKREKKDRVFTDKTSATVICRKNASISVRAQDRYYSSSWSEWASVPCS
As to the kind of experiment: cell-based or functional assay.

Data set [2] concerns the target T1, 人白介素23(Human interleukin 23，hIL-23). As to the kind of experiment: SPR, Biacore T200, antibody captured on Protein A chip, IL-23 as analyte, 25℃, 1:1 model.

B1: Risankizumab (antibody, V domains shown)
VH: QVQLVQSGAEVKKPGSSVKVSCKASGYTFTDQTIHWMRQAPGQGLEWIGYIYPRDDSPKYNENFKGKVTITADKSTSTAYMELSSLRSEDTAVYYCAIPDRSGYAWFIYWGQGTLVTVSS
VL: DIQMTQSPSSLSASVGDRVTITCKASRDVAIAVAWYQQKPGKVPKLLIYWASTRHTGVPSRFSGSGSRTDFTLTISSLQPEDVADYFCHQYSSYPFTFGSGTKLEIKR
Consider B1, for which, in data set [1], the “抑制IL-23诱导的HEK Blue TM IL-23细胞中STAT3磷酸化活性 IC50” value was determined as 0.00351 µg/mL, the “抑制IL-23诱导的人NK细胞释放IFN-γ活性 IC50” value amounted to 0.0111 µg/mL and the “抑制IL-23诱导的小鼠脾脏细胞释放IL-17A活性 IC50” value was 0.00843 µg/mL. In data set [2], this molecule yielded a Kd of 0.052 nM, a koff of 3.7e-05 s⁻¹ and a kon of 706000 M⁻¹ s⁻¹.

B2: 抗人白介素23单克隆抗体QX004N(HZD90-32) (antibody, human IgG1, kappa, V domains shown)
VH: EVQLVESGGGLVQPGGSLRLSCAASGFSLSNHEMSWVRQAPGKGLEWIGIITTSDTTYYATWAKGRFTISRDNSKNTLYLQMNSLRAEDTAVYYCARVDIVLLSVTSRIWGQGTLVTVSS
VL: DVVMTQSPSSLSASVGDRVTITCQASQSVSTYLSWYQQKPGKAPKLLIYGASNLESGVPSRFSGSGSGTDFTLTISSLQPEDFATYYCQSGYVFAGLTFGGGTKVEIKR
Take B2: in data set [1], the “抑制IL-23诱导的HEK Blue TM IL-23细胞中STAT3磷酸化活性 IC50” value was 0.00321 µg/mL, the “抑制IL-23诱导的人NK细胞释放IFN-γ活性 IC50” value came to 0.0104 µg/mL and the “抑制IL-23诱导的小鼠脾脏细胞释放IL-17A活性 IC50” value was found to be 0.0117 µg/mL. In addition, in data set [2], binding was characterised by a dissociation constant (Kd) of 0.101 nM, the koff stood at 3.5e-05 s⁻¹ and the kon was determined as 366000 M⁻¹ s⁻¹.

B3: Guselkumab (antibody, V domains shown)
VH: EVQLVQSGAEVKKPGESLKISCKGSGYSFSNYWIGWVRQMPGKGLEWMGIIDPSNSYTRYSPSFQGQVTISADKSISTAYLQWSSLKASDTAMYYCARWYYKPFDVWGQGTLVTVSS
VL: QSVLTQPPSVSGAPGQRVTISCTGSSSNIGSGYDVHWYQQLPGTAPKLLIYGNSKRPSGVPDRFSGSKSGTSASLAITGLQSEDEADYYCASWTDGLSLVVFGGGTKLTVLG
In the case of B3, in data set [1], the “抑制IL-23诱导的人NK细胞释放IFN-γ活性 IC50” value came to 0.0168 µg/mL and the “抑制IL-23诱导的小鼠脾脏细胞释放IL-17A活性 IC50” value is 0.0135 µg/mL. Further, the Kd in data set [2] was 0.063 nM.

Usually Kd stands for the equilibrium constant for the complex coming apart. By koff is commonly meant the first-order rate constant of dissociation. The term kon denotes the rate constant with which the complex forms.
